T1: mouse TSLP-His (Sino Biological, product code 51005-M08H) (mouse, UniProt Q9JIE6 20-140)
T1 construct: Bought reagent; also called TSLP (Mouse); not shown: His tag
T1 sequence (looked up): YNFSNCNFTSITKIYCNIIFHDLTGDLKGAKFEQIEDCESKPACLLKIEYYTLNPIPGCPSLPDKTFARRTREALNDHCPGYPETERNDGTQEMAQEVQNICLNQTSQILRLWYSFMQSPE

B1: humanized anti-TSLP monoclonal antibody HA-II (antibody, human IgG1, kappa, L234A L235A, V domains shown)
VH: QVQLVQSGAEVKKPGASVKVSCKASGYTFTSYWMHWVRQAPGQGLEWIGLIDPSDSDTTYNQKFKGRATLTVDTSTSTAYMELSSLRSEDTAVYYCSRSLDGYFDHWGQGTLVTVSS
VL: DIVMTQSPSSLSASVGDRVTITCRASENIYSYLAWYQQKPGKAPKLLVYNARTLAEGVPSRFSGSGSGTDFTLTISSLQPEDFATYYCQHHYGTPWTFGGGTKVEIKR
B2: humanized anti-TSLP monoclonal antibody HA-I (antibody, human IgG1, kappa, L234A L235A, V domains shown)
VH: QVQLVQSGAEVKKPGASVKVSCKASGYTFTSYWMHWVRQAPGQGLEWIGLIDPSDSDTTYNQKFKGRATLTVDTSTSTAYMELSSLRSEDTAVYYCSRSLDGYFDHWGQGTLVTVSS
VL: DIVMTQSPSSLSASVGDRVTITCRASENIYSYLAWYQQKPGKSPKLLVYNARTLAEGVPSRFSGSGSGTDFTLTISSLQPEDFATYYCQHHYGTPWTFGGGTKVEIKR
notes: also called HA-1; EB070
B3: humanized anti-TSLP monoclonal antibody HA-III (antibody, human IgG1, kappa, L234A L235A)
heavy: not shown
light: DIQMTQSPSSLSASVGDRVTITCRASENIYSYLAWYQQKPGKAPKLLVYNARTLAEGVPSRFSGSGSGTDFTLTISSLQPEDFATYYCQHHYGTPWTFGGGTKVEIKRTVAAPSVFIFPPSDEQLKSGTASVVCLLNNFYPREAKVQWKVDNALQSGNSQESVTEQDSKDSTYSLSSTLTLSKADYEKHKVYACEVTHQGLSSPVTKSFNRGEC
B4: humanized anti-TSLP monoclonal antibody HA-IV (antibody, human IgG1, kappa, L234A L235A)
heavy: not shown
light: DIVMTQSPSSLSASVGDRVTITCRASENIYSYLAWYQQKPGKAPKLLVYNARTLAEGVPSRFSGSGSGTDFTLTISSLQPEDFATYYCQHHYGTPWTFGGGTKVEIKRTVAAPSVFIFPPSDEQLKSGTASVVCLLNNFYPREAKVQWKVDNALQSGNSQESVTEQDSKDSTYSLSSTLTLSKADYEKHKVYACEVTHQGLSSPVTKSFNRGEC

This experiment has as its target T1, mouse TSLP-His (Sino Biological, …). The experiment is described as follows: ELISA, mouse TSLP-His coated. (In general: ELISA stands for enzyme-linked immunosorbent assay.)
Description: It was washed with 300 μl/well PBST for five times, 1% BSA-PBST was added, and it was sealed at 37° C. for 1 h. […] It was washed with 300 μl/well PBST for five times, then Goat AntiHuman IgG-HRP diluted with 1% BSA-PBST 1:5000 was added and incubated at 37° C. for 1 h. A TMB color kit was used for color development at 100 μl/well, it was color-developed at the room temperature for 5 min, then terminated with 2 M H₂SO₄. An ELISA plate was read at 450 nm/630 nm, and the corresponding EC50 value was calculated.
As to B1, the binding result is “no binding (tested: 16 µg/ml (highest concentration))”.

With B2, the binding result is “no binding (tested: 16 µg/ml (highest concentration))”.

Turning to B3, the binding result was “no binding (tested: 16 µg/ml (highest concentration))”.

Regarding B4, the binding result is reported as “no binding (tested: 16 µg/ml (highest concentration))”.

For the origin of these results see patent US20250042987A1 (BEIJING DONGFANG BIOTECH, published 2025).
